{"source": "patent US20260266833A1", "binders": {"B1": {"name": "Cbx2.VD chromodomain (tags removed) (designed binder)", "chain": "GEDVFAAECILSKRLRKGKLEYLVKWEGWSSKHNSWEPEENILDPRLLLAFQKKEHEKEVQNR"}, "B2": {"name": "Cbx8.VD chromodomain (tags removed) (designed binder)", "chain": "GEDVFAAEALLKRRIRKGRMEYLVKWEGWSQKYSTWEPEENILDARLLAAFEEREREMELYGP"}, "B3": {"name": "Cbx7.V1 chromodomain (tags removed) (designed binder)", "chain": "SAIGDDIFAVESIRKKRVRKGKVEYLVKWEGWPLEYSTWEPEEHILDPRLVMAYEEKEERDRASGYRKRGPK"}, "B4": {"name": "Cbx7.wt chromodomain (tags removed), O95931 4-75 (protein)", "chain": "B3 chain with D5E, D6Q, I7V, E30K, L34P, E35K"}, "B5": {"name": "Cbx7 K33E chromodomain (tags removed) (designed binder)", "chain": "B3 chain with D5E, D6Q, I7V, L34P, E35K"}, "B6": {"name": "Cbx7 Q9D chromodomain (tags removed) (designed binder)", "chain": "B3 chain with D5E, I7V, E30K, L34P, E35K"}, "B7": {"name": "Cbx7.VD chromodomain (tags removed) (designed binder)", "chain": "B3 chain with D5E, I7V, L34P, E35K"}, "B8": {"name": "Cbx7.V1 back-mutant D8E, His6- and Flag-tagged (designed binder, not shown: small tags and cut ends)", "chain": "B3 chain with D5E"}, "B9": {"name": "Cbx7.V1 back-mutant L37P, His6- and Flag-tagged (designed binder, not shown: small tags and cut ends)", "chain": "B3 chain with L34P"}, "B10": {"name": "Cbx7.V1 chromodomain, His6- and Flag-tagged (designed binder, not shown: small tags and cut ends)", "chain": "B3 chain"}, "B11": {"name": "Cbx7.V1 back-mutant E38K, His6- and Flag-tagged (designed binder, not shown: small tags and cut ends)", "chain": "B3 chain with E35K"}, "B12": {"name": "Cbx7.V1 back-mutant E33K, His6- and Flag-tagged (designed binder, not shown: small tags and cut ends)", "chain": "B3 chain with E30K"}, "B13": {"name": "Cbx7.V1 back-mutant I10V, His6- and Flag-tagged (designed binder, not shown: small tags and cut ends)", "chain": "B3 chain with I7V"}}, "note": "Substitutions are numbered along the chain they refer to. Names and notes keep the numbering of the source.", "data": [{"target": "H3K9me3 peptide", "experiment": "fluorescence polarization, FITC-peptide 0.5 nM", "units": {"Kd": "µM"}, "values": [{"binder": "B1", "Kd": 5}, {"binder": "B2", "Kd": 20}, {"binder": "B3", "Kd": 7}, {"binder": "B4", "Kd": 30}, {"binder": "B5", "Kd": 20}, {"binder": "B6", "Kd": 10}, {"binder": "B7", "Kd": 8}]}, {"target": "H3K9me3 peptide", "experiment": "ITC, peptide titrated into the chromodomain, 25 C", "units": {"Kd": "µM"}, "values": [{"binder": "B3", "Kd": 7}]}, {"target": "H3K9me3 peptide", "experiment": "BLI, biotinylated peptide on streptavidin tips, steady state", "units": {"Kd": "µM"}, "values": [{"binder": "B8", "Kd": 5}, {"binder": "B9", "Kd": 3}, {"binder": "B10", "Kd": 4.5}, {"binder": "B11", "Kd": 2}, {"binder": "B12", "Kd": 10}, {"binder": "B13", "Kd": 3.5}]}]}
